Source: paper PMC8537613 (2021)

Target: m102.4
Experiment: ELISA

B1: NiV sG (domain or fragment)
chain: QNYTRSTDNQAVIKDALQGIQQQIKGLADKIGTEIGPKVSLIDTSSTITIPANIGLLGSKISQSTASINENVNEKCKFTLPPLKIHECNISCPNPLPFREYRPQTEGVSNLVGLPNNICLQKTSNQILKPKLISYTLPVVGQSGTCITDPLLAMDEGYFAYSHLERIGSCSRGVSKQRIIGVGEVLDRGDEVPSLFMTNVWTPPNPNTVYHCSAVYNNEFYYVLCAVSTVGDPILNSTYWSGSLMMTRLAVKPKSNGGGYNQHQLALRSIEKGRYDKVMPYGPSGIKQGDTLYFPAVGFLVRTEFKYNDSNCPITKCQYSKPENCRLSMGIRPNSHYILRSGLLKYNLSDGENPKVVFIEISDQRLSIGSPSKIYDSLGQPVFYQASFSWDTMIKFGDVLTVNPLVVNWRNNTVISRPGQSQCPRFNTCPEICWEGVYNDAFLIDRINWISAGVFLDSNQTAENPVFTVFKDNEILYRAQLASEDTNAQKTITNCFLLKNKIWCISLVEIYDTGDNVIRPKLFAVKIPEQCT
- Kd: 0.15 nM
